Source: paper doi:10.1101/2022.08.15.503920
Several values for one entry are separate records, joined by “and”; a condition that tells them apart may be missing. Identical values can stand only once. Like-named read-outs stand apart in the source and are kept apart here. One block for each substance: values may come before it.

Key:
Assay in all cases: SEC-SAXS
[1] = target: enolase from baker's yeast (baker's yeast) (UniProt P00924)
[2] = target: enolase from baker's yeast (baker's yeast) (UniProt P00924); remark: listed apart in the source
[3] = tested on: P00924; details: other: SEC-SAXS
[4] = target: L-lactate dehydrogenase from hog muscle (Sus scrofa) (UniProt P00339)
[5] = target: L-lactate dehydrogenase from hog muscle (Sus scrofa) (UniProt P00339); remark: listed apart in the source

enolase from baker's yeast, sequence (P00924 whole entry): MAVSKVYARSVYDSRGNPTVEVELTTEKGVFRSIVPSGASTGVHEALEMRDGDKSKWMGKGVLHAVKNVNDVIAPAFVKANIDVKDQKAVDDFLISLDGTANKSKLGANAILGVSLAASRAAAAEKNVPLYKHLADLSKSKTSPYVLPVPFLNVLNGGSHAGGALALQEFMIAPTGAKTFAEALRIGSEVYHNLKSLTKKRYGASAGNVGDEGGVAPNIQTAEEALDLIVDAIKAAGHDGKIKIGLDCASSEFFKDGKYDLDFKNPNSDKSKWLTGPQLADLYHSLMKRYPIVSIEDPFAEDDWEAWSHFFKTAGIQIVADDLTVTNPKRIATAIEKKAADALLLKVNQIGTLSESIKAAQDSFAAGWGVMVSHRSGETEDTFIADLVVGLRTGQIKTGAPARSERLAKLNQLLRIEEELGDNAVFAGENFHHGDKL

Substance: enolase from baker's yeast (from UniProt P00924 1-437) (enzyme)
- stoichiometry N [1]: 2
- stoichiometry N [2]: 2

Substance: enolase from baker's yeast
- share of monomer and dimer in the main peak body at 100 MPa [3]: ∼50% monomer/dimer mixture

- stoichiometry N [4]: 4
- stoichiometry N [5]: 4 and 2
Substance: L-lactate dehydrogenase from hog muscle (from UniProt P00339 1-332) (enzyme)
